These results are taken from patent US20220064216A1 (ANBITION S R L, published 2022).

In assay [1] the target is T1, human recombinant receptor VEGFR-1, the form consisting of the seven extracellular domains of the receptor … (human, UniProt P17948 27-758).
T1 construct: Bought reagent; also called Flt-1; not shown: Fc domain of human IgG
In words: competition ELISA, VEGFR-1-Fc coated, VEGF-A as competing ligand. The procedure:
The human recombinant receptor VEGFR-1, in particular the form consisting of the seven extracellular domains of the receptor fused to the Fc domain of human IgG (R&D Systems, cat No. 321-FL), was made to adhere in the wells of 96-well microplates at a concentration of 0.5 μg/ml in PBS pH 7.5 (100 μl/well) for 16 hours at room temperature (RT).
The binding reaction was conducted for one hour at 37° C., followed by one hour at room temperature.
Background: ELISA stands for enzyme-linked immunosorbent assay.

Assay [2] concerns the target T2, human recombinant receptor VEGFR-1, the form consisting of the seven extracellular domains of the receptor fused to the Fc domain of human IgG (R&D Systems, cat No. 321-FL) (human), P17948.
T2 chain: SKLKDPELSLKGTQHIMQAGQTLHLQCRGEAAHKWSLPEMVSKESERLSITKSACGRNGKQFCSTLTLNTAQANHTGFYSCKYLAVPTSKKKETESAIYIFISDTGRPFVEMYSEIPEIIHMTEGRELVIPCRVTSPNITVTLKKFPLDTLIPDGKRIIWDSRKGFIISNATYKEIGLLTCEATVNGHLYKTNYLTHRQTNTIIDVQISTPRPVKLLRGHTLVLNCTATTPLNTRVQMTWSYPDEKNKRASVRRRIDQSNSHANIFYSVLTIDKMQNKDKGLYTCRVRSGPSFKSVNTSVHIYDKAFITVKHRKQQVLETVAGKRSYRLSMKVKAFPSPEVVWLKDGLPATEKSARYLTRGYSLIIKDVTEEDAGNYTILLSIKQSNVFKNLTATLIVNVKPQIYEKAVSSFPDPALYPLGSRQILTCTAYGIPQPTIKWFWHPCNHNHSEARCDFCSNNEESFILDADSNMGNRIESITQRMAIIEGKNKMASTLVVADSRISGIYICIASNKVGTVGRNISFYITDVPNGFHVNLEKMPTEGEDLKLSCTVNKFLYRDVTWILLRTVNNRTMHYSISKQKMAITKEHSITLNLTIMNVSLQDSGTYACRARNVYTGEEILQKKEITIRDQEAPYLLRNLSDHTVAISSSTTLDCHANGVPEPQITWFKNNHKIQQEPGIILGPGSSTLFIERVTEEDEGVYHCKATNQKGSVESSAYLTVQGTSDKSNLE
In words: competition ELISA, VEGFR-1-Fc coated, PlGF 5 ng/ml as competing ligand, peptide at 3125 nM.

Assay [3] concerns the target T2, human recombinant receptor VEGFR-1, the …. The assay is described as follows: competition ELISA, VEGFR-1-Fc coated, PlGF 5 ng/ml as competing ligand, peptide at 12500 nM.
Assay [4] shares this target. The assay is described as follows: competition ELISA, VEGFR-1-Fc coated, PlGF 5 ng/ml as competing ligand, peptide at 6250 nM.
For assay [5] the target is unchanged. The assay is described as follows: competition ELISA, VEGFR-1-Fc coated, PlGF 5 ng/ml as competing ligand, peptide at 50000 nM.
For assay [6] the target is unchanged. In words: competition ELISA, VEGFR-1-Fc coated, VEGF-A 5 ng/ml as competing ligand, peptide at 6250 nM.
The target is the same in assay [7]. In words: competition ELISA, VEGFR-1-Fc coated, VEGF-A 5 ng/ml as competing ligand, peptide at 780 nM.
Assay [8] has the same target. The assay is described as follows: competition ELISA, VEGFR-1-Fc coated, VEGF-A as competing ligand.
Assay [9] has the same target. The assay is described as follows: competition ELISA, VEGFR-1-Fc coated, PlGF 5 ng/ml as competing ligand, peptide at 780 nM.
Assay [10] has the same target. The assay is described as follows: competition ELISA, VEGFR-1-Fc coated, VEGF-A 5 ng/ml as competing ligand, peptide at 25000 nM.
Assay [11] shares this target. The assay is described as follows: competition ELISA, VEGFR-1-Fc coated, VEGF-A 5 ng/ml as competing ligand, peptide at 12500 nM.
Assay [12] has the same target. In words: competition ELISA, VEGFR-1-Fc coated, PlGF 5 ng/ml as competing ligand, peptide at 25000 nM.
For assay [13] the target is unchanged. The assay is described as follows: competition ELISA, VEGFR-1-Fc coated, PlGF as competing ligand.
For assay [14] the target is unchanged. In words: competition ELISA, VEGFR-1-Fc coated, VEGF-A 5 ng/ml as competing ligand, peptide at 50000 nM.
For assay [15] the target is unchanged. In words: competition ELISA, VEGFR-1-Fc coated, VEGF-A 5 ng/ml as competing ligand, peptide at 3125 nM.
Assay [16] has the same target. The assay is described as follows: competition ELISA, VEGFR-1-Fc coated, PlGF 5 ng/ml as competing ligand, peptide at 1560 nM.
The target is the same in assay [17]. The assay is described as follows: competition ELISA, VEGFR-1-Fc coated, VEGF-A 5 ng/ml as competing ligand, peptide at 1560 nM.
Assay [18] has the same target. In words: competition ELISA, VEGFR-1-Fc coated, PlGF or VEGF-A as competing ligand; reference iVR1.

Square brackets hold non-standard residues; d marks the D form. Ends that are not written are not given here. * marks the point of attachment. Met(O2) = CS(=O)(=O)CC[C@H](N)C(=O)O; Cha = N[C@@H](CC1CCCCC1)C(=O)O; Bn = c1ccc(C*)cc1

B1: tetrameric peptide having formula (II) with Y2 = D-serine (peptide)
peptide: [dE]-Cys(Bn)-[Cha]
chain 1: Lys
chain 2: Lys-[dS]-NH2
modifications: also: branched tetramer: four arms on both amines of two Lys, each bonded to an amine of the Lys of chain 3
notes: Described only as a tetrameric peptide of formula (II) with Y2 different from D-cysteine
In the case of B1, the IC50 (in general, the concentration needed to halve the response being measured) in [1] is 2430 nM.

B2: tetrameric peptide having formula (II) with Y2 = L-cysteine (peptide)
peptide: [dE]-Cys(Bn)-[Cha]
chain 1: Lys
chain 2: Lys-Cys-NH2
modifications: also: branched tetramer: four arms on both amines of two Lys, each bonded to an amine of the Lys of chain 3
notes: as for B1
On to B2, for which the 50% inhibitory concentration (IC50) in [1] stood at 2030 nM.

B3: iVR1, tetrameric peptide of formula (IIc): [H-(R-Glu)-(S-Cys(Bzl))-(S-Cha)]4-Lys2-Lys-Gly-NH2 (peptide)
peptide: H-[dE]-Cys(Bn)-[Cha]
chain 1: Lys
chain 2: Lys-Gly-NH2
modifications: also: branched tetramer: four arms on alpha and epsilon amines of two Lys, each bonded to an amine of the Lys of chain 3
Take B3: the binding % (residual PlGF binding to VEGFR-1) in assay [2] is 96.1%; in assay [3], 44.6%; in assay [4] it was 68.5%; in assay [5], 26.3%; in assay [9], 99.4%; in assay [12] it was 36%. Further, in assay [16], the binding % (residual PlGF binding to VEGFR-1) was 101%. The binding % (residual VEGF-A binding to VEGFR-1) in [6] is 66%; in assay [7], 98.4%; in [10], 21.4%; in assay [11] it was 37%; in assay [14], 8.6%; in assay [15], 93.9%. The binding % (residual VEGF-A binding to VEGFR-1) in [17] turned out to be 96.2%. The IC50 in [8] and in assay [13] was 10000 nM in each case.

B4: iVR1-Cys, tetrameric peptide of formula (IIb): [H-(R-Glu)-(S-Cys(Bzl))-(S-Cha)]4-Lys2-Lys-(D-Cys)-NH2 (peptide)
peptide: H-[dE]-Cys(Bn)-[Cha]
chain 1: Lys
chain 2: Lys-[dC]-NH2
modifications: also: branched tetramer: four arms on alpha and epsilon amines of two Lys, each bonded to an amine of the Lys of chain 3
B4: the binding % (residual PlGF binding to VEGFR-1) is 25.5% in assay [2]; 12.6% in assay [3]; 14.1% in assay [4]; 9.18% in assay [5]; 83.8% in assay [9]; 10.3% in [12]. Moreover, the binding % (residual PlGF binding to VEGFR-1) in assay [16] is 35.5%. Also, the binding % (residual VEGF-A binding to VEGFR-1) in [6] amounted to 12.5%; in [7], 92.3%; in assay [10], 7.99%; in assay [11], 9.81%; in [14], 6.5%; in [15], 21.7%. Besides, the binding % (residual VEGF-A binding to VEGFR-1) in assay [17] was 43.7%. The IC50 was 1000 nM in assay [8] and below 1000 nM in [13]. Further, in assay [18], the inhibitory capacity, fold against iVR1 is 10 fold.

B5: tetrameric peptide having formula (II) with Y2 = L-methionine sulfone (peptide)
peptide: [dE]-Cys(Bn)-[Cha]
chain 1: Lys
chain 2: Lys-[Met(O2)]-NH2
modifications: also: branched tetramer: four arms on both amines of two Lys, each bonded to an amine of the Lys of chain 3
notes: as for B1
For B5, in [1], the IC50 was found to be 4620 nM.
